The target of series [1] is M. hassiacum OctT (Mycolicibacterium hassiacum, UniProt K5BJH8). Briefly: CoA release with DTNB at […] nm. Format: biochemical. Particulars: DGG 20 mM, Oct-CoA 80 μM; product inhibition; enzyme species not given, M. hassiacum inferred from the characterisation.
Series [2] has as its target M. tuberculosis OctT (Rv2418c) (Mycobacterium tuberculosis, UniProt P71725).
Substrate in series [3]: CCCCCCCC(=O)SCCNC(=O)CCNC(=O)[C@H](O)C(C)(C)COP(=O)(O)OP(=O)(O)OC[C@H]1O[C@@H](n2cnc3c(N)ncnc32)[C@H](O)[C@@H]1OP(=O)(O)O
Briefly: purified protein. Type of series: biochemical, Mycolicibacterium smegmatis. Conditions: apparent, DGG 45 mM, 50 mM BTP, 37 °C, substrate inhibition above 100 μM.

Substrate in series [4]: O=C(O)[C@@H](CO)O[C@H]1O[C@H](CO)[C@@H](O)[C@H](O)[C@H]1O
Description: purified protein. Type of series: biochemical, Mycolicibacterium smegmatis. Particulars: apparent, Oct-CoA 100 μM, 50 mM BTP, 37 °C.

Substrate in series [5]: O=C(O)[C@@H](CO)O[C@H]1O[C@H](CO[C@H]2O[C@H](CO)[C@@H](O)[C@H](O)[C@H]2O)[C@@H](O)[C@H](O)[C@H]1O
Description: purified protein. Conditions: apparent, Oct-CoA 100 μM, 50 mM BTP, 37 °C. Format: biochemical, Mycolicibacterium smegmatis.

Substrate in series [6]: CCCCCC(=O)SCCNC(=O)CCNC(=O)[C@H](O)C(C)(C)COP(=O)(O)OP(=O)(O)OC[C@H]1O[C@@H](n2cnc3c(N)ncnc32)[C@H](O)[C@@H]1OP(=O)(O)O
Briefly: purified protein. Type of series: biochemical, Mycolicibacterium hassiacum. Conditions: apparent, DGG 20 mM, 50 mM BTP, 37 °C, substrate inhibition above 100 μM.

Substrate in series [7]: CCCCCCCC(=O)SCCNC(=O)CCNC(=O)[C@H](O)C(C)(C)COP(=O)(O)OP(=O)(O)OC[C@H]1O[C@@H](n2cnc3c(N)ncnc32)[C@H](O)[C@@H]1OP(=O)(O)O
Briefly: purified protein. Format: biochemical, Mycolicibacterium hassiacum. Particulars: apparent, DGG 20 mM, 50 mM BTP, 37 °C, substrate inhibition above 100 μM.

Substrate in series [8]: O=C(O)[C@@H](CO)O[C@H]1O[C@H](CO)[C@@H](O)[C@H](O)[C@H]1O
Briefly: purified protein. Format: biochemical, Mycolicibacterium hassiacum. Particulars: apparent, Oct-CoA 100 μM, 50 mM BTP, 37 °C.

Substrate in series [9]: O=C(O)[C@@H](CO)O[C@H]1O[C@H](CO[C@H]2O[C@H](CO)[C@@H](O)[C@H](O)[C@H]2O)[C@@H](O)[C@H](O)[C@H]1O
Description: purified protein. Conditions: apparent, Oct-CoA 100 μM, 50 mM BTP, 37 °C. Format: biochemical, Mycolicibacterium hassiacum.

The values below come from PMC4555173, “Octanoylation of early intermediates of mycobacterial methylglucose lipopolysaccharides” (Scientific Reports, 2015).

Chain of M. tuberculosis OctT (Rv2418c) (P71725 whole entry): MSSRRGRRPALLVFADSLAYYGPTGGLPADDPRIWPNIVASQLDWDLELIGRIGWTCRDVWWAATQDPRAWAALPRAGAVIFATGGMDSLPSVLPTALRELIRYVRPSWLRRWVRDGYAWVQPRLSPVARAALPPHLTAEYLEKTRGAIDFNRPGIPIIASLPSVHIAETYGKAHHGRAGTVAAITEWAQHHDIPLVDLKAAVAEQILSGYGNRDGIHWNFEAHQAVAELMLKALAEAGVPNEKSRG

In the case of `CCCCCCCC(=O)OC[C@H]1O[C@H](OC[C@H]2O[C@H](O[C@H](CO)C(=O)O)[C@H](O)[C@@H](O)[C@@H]2O)[C@H](O)[C@@H](O)[C@@H]1O` [compound 1], in [1], the “% loss of activity at 400 μM” value is on record as 22%.

As to `O=C(O)[C@@H](CO)O[C@H]1O[C@H](CO[C@H]2O[C@H](CO)[C@@H](O)[C@H](O)[C@H]2O)[C@@H](O)[C@H](O)[C@H]1O` [DGG, (2R)-2-O-α-D-glucopyranosyl-(1→6)-α-D-glucopyranosyl-2,3-dihydroxypropanoate], the “preparative conversion, TLC and NMR of product” value in [2] was “natural Oct-DGG produced by the M. tuberculosis, M. hassiacum and M. smegmatis recombinant OctT enzymes”.

B1: M. smegmatis OctT (Mycolicibacterium smegmatis MC2 155) (protein)
chain: MSSETSSESTGHRPVLLVFADSLSYFGPTGGLPADDPRIWPNIVGEQLGWDVELIGRIGWTCRDVWWAATQDPRSWAALPRAGAVVFATSGMDSLPSPLPTALREMIRYVRPPWLRRWVRDGYGWVQPRLSPIARSALPPHVTVEYLEMTRNAIDFNRPGIPVVASLPSVHIAETYGRAHHGREPTVRAITAWAEEHHVPLVDLKAAVADEVFGGRGNPDGIHWSFEAHRAVAELMLKGLAEAGVTQRDSAT
On to B1, for which the Michaelis constant (Km) in series [3] is on record as 0.03 ± 0.01 mM; in [4] it was 19.0 ± 8.6 mM; in [5] it was 20.0 ± 3.6 mM. In addition, the figures for the kcat/Km in [3] and in [5] were 1430 ± 483 M⁻¹ s⁻¹ and 1.83 ± 0.833 M⁻¹ s⁻¹, respectively.

B2: M. hassiacum OctT (Mycolicibacterium hassiacum DSM 44199) (protein)
chain: MSGRRPTLLVFCDSLSYYGPRGGLPADDPRIWPNIVASQLDWDVELIGRVGWTSRDVWWAATQDPRAWAALPRAGAVIFATGGMDSLPSPLPTALRELIRYIRPPWLRRRVRDLYGWLQPRLSPVSRNALPPHLTAEYLEMTRGAIDFNRPGIPVVAALPSVHIADSYGRAHHGREATARAITEWARQHGVVLVDLKAAVADQVLNGRGNPDGIHWNFEAHQAVAELMLKALAEAGVPCR
For the molecule B2, the specificity constant (kcat/Km) in [6] is 35 ± 10 M⁻¹ s⁻¹; in [7] it was 31.7 ± 6.67 M⁻¹ s⁻¹; in series [8] it was 0.05 ± 0.00667 M⁻¹ s⁻¹; in series [9] it was 0.167 M⁻¹ s⁻¹. For the same molecule, the Km was 0.06 ± 0.01 mM in series [7], 6.6 ± 0.78 mM in series [8] and 9.5 ± 0.8 mM in series [9].
